Test results published in PMC6858323, “Multiple conformations facilitate PilT function in the type IV pilus” (Nature Communications, 2019).
Where a chain is given by its changes, count along the chain named. Numbers in names are those of the source.

B1: PilT from Pseudomonas aeruginosa (PilT^Pa), purified (enzyme)
chain: MDITELLAFSAKQGASDLHLSAGLPPMIRVDGDVRRINLPPLEHKQVHALIYDIMNDKQRKDFEEFLETDFSFEVPGVARFRVNAFNQNRGAGAVFRTIPSKVLTMEELGMGEVFKRVSDVPRGLVLVTGPTGSGKSTTLAAMLDYLNNTKYHHILTIEDPIEFVHESKKCLVNQREVHRDTLGFSEALRSALREDPDIILVGEMRDLETIRLALTAAETGHLVFGTLHTTSAAKTIDRVVDVFPAEEKAMVRSMLSESLQSVISQTLIKKIGGGRVAAHEIMIGTPAIRNLIREDKVAQMYSAIQTGGSLGMQTLDMCLKGLVAKGLISRENAREKAKIPENF
notes: PilT, Pseudomonas aeruginosa, expressed from pET28a:PilT^Pa; the cloning of this plasmid is not described; also called apo-PilT^Pa; wild-type PilT^Pa; source: E. coli BL21-CodonPlus, purified (Ni-NTA, Superdex 200 SEC)
B2: K58A PilT from Pseudomonas aeruginosa, purified (enzyme)
chain: B1 chain with K58A
notes: PilT, Pseudomonas aeruginosa, with K58A; the expression construct of the purified mutant is not described; also called K58A PilT^Pa; K58A mutant; source: purified

Biological target: the molecule itself
Assay: cryoEM 2D class averages; PilT^Pa 0.75 mg/ml without added nucleotide, 4 °C; top-view 2D class averages compared with projections of PilT crystal structures

Protein	stoichiometry N
B1	6
B2	6
